Assays:
EhRNaseIII229 [1] = biological target: T1, EhRNaseIII229 (Entamoeba histolytica, UniProt C4LU64 2-229); assay: EMSA; 5 mM Mg2+; up to 1e-3 M; EMSA (1x): 30 mM Tris-HCl pH 7.5, 30 mM NaCl, 5 mM MgCl2, 1 mM DTT, 0.1 mM EDTA, 5% glycerol; room temperature 10 min then ice 20 min; 6% native PAGE, 0.5x TBE; conditions: protein: recombinant, tags: His-Sumo removed by Ulp1, chain copies: 2, blunt
T1 sequence: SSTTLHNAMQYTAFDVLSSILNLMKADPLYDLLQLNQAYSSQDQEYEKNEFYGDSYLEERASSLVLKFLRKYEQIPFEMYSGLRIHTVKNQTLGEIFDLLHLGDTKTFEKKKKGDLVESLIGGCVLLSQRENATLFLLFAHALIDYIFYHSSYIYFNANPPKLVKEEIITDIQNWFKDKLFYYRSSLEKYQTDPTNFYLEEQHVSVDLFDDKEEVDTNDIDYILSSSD

[2] = biological target: T2, EhRNaseIII256 (full-length EhRNaseIII) (Entamoeba histolytica, UniProt C4LU64 2-256); assay: as above; conditions: protein: recombinant, tags: His-Sumo removed by Ulp1, chain copies: 2, blunt
T2 sequence: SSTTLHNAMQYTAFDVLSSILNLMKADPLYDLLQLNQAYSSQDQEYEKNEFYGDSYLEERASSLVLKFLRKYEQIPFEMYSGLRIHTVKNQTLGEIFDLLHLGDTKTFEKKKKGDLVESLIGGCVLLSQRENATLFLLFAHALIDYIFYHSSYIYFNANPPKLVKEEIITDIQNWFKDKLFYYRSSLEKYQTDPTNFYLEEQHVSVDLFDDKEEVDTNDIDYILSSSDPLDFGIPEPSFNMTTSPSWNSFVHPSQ

EhRNaseIII229 [3] = biological target: T1, EhRNaseIII229; assay: EMSA; 5 mM Mg2+; EMSA (1x): 30 mM Tris-HCl pH 7.5, 30 mM NaCl, 5 mM MgCl2, 1 mM DTT, 0.1 mM EDTA, 5% glycerol; room temperature 10 min then ice 20 min; 6% native PAGE, 0.5x TBE; conditions: protein: recombinant; tags: His-Sumo removed by Ulp1; chain copies: 2; blunt, 25 bp
[4] = biological target: T2, EhRNaseIII256 (full-length EhRNaseIII); assay: as above; conditions: protein: recombinant, tags: His-Sumo removed by Ulp1, chain copies: 2, blunt
EhRNaseIII194 [5] = biological target: T3, EhRNaseIII194 (Entamoeba histolytica, UniProt C4LU64 2-194); assay: EMSA; 5 mM Mg2+; up to 1e-3 M; EMSA (1x): 30 mM Tris-HCl pH 7.5, 30 mM NaCl, 5 mM MgCl2, 1 mM DTT, 0.1 mM EDTA, 5% glycerol; room temperature 10 min then ice 20 min; 6% native PAGE, 0.5x TBE; conditions: protein: recombinant; tags: His-Sumo removed by Ulp1; chain copies: 2; blunt, 25 bp
T3 sequence: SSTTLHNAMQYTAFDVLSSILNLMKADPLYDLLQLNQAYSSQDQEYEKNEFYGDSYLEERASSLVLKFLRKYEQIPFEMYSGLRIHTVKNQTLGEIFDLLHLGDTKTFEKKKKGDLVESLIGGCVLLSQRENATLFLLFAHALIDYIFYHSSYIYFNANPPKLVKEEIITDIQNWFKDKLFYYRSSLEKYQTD

EhRNaseIII194 [6] = biological target: T3, EhRNaseIII194; assay: EMSA; 5 mM Mg2+; shift at 5e-5 M; EMSA (1x): 30 mM Tris-HCl pH 7.5, 30 mM NaCl, 5 mM MgCl2, 1 mM DTT, 0.1 mM EDTA, 5% glycerol; room temperature 10 min then ice 20 min; 6% native PAGE, 0.5x TBE; conditions: protein: recombinant; tags: His-Sumo removed by Ulp1; chain copies: 2; blunt, 100 bp
EhRNaseIII229 [7] = biological target: T1, EhRNaseIII229; assay: EMSA; 5 mM Mg2+; almost complete shift at 3e-4 M; EMSA (1x): 30 mM Tris-HCl pH 7.5, 30 mM NaCl, 5 mM MgCl2, 1 mM DTT, 0.1 mM EDTA, 5% glycerol; room temperature 10 min then ice 20 min; 6% native PAGE, 0.5x TBE; conditions: protein: recombinant; tags: His-Sumo removed by Ulp1; chain copies: 2; blunt, 100 bp
[8] = biological target: the molecule itself; assay: crystal structure; SeMet-EhRNaseIII194, hanging drop, 16 °C, 1.26 M (NH4)2SO4, 0.1 M Hepes pH 7.8; P212121, SAD phasing, 2.10 Å
EhRNaseIII194 [9] = biological target: T3, EhRNaseIII194; assay: EMSA; 5 mM Mg2+; binds at 1e-4 M; EMSA (1x): 30 mM Tris-HCl pH 7.5, 30 mM NaCl, 5 mM MgCl2, 1 mM DTT, 0.1 mM EDTA, 5% glycerol; room temperature 10 min then ice 20 min; 6% native PAGE, 0.5x TBE; conditions: protein: recombinant; tags: His-Sumo removed by Ulp1; chain copies: 2; blunt, 70 bp
[10] = biological target: the molecule itself; assay: crystal structure; EhRNaseIII229, sitting drop, 16 °C, 1.6 M (NH4)2SO4, 0.02 M MgCl2, 0.05 M Tris-HCl pH 7.5; apo (1.90 Å) and soaked with 10 mM MnCl2 (2.05 Å); P212121, molecular replacement

B1: RNA50 (dsRNA)
RNA 1: GGGAGAAACGCGGCCUCUUCUUAUUUAUGGCGACAUGUUGUGCCUCUCCC
RNA 2: GGGAGAGGCACAACAUGUCGCCAUAAAUAAGAAGAGGCCGCGUUUCUCCC
B1: no binding (EhRNaseIII229 [1]; 50 bp); no binding ([2]; 50 bp).

B2: RNA25 (dsRNA)
RNA 1: GGGAGAAACGCGGCCUCUUUCUCCC
RNA 2: GGGAGAAAGAGGCCGCGUUUCUCCC
B2: no binding (EhRNaseIII229 [3]); no binding ([4]; 25 bp); no binding (EhRNaseIII194 [5]).

B3: RNA100 (dsRNA)
RNA 1: GGGAGAAACGCGGCCUCUUCUUAUUUAUGGCGACAUGUUGUGCCACAUAUUGAGCCAGUAGCGCGGUGUAUUAUACCAGACCUUAUUGGUAUGGUCUCCC
RNA 2: GGGAGACCAUACCAAUAAGGUCUGGUAUAAUACACCGCGCUACUGGCUCAAUAUGUGGCACAACAUGUCGCCAUAAAUAAGAAGAGGCCGCGUUUCUCCC
For B3, the Kd ([4]; 100 bp) was about 600 µM, the binding signal (EhRNaseIII194 [6]) was ~6 fold affinity vs EhRNaseIII256 (2-fold vs EhRNaseIII229) and the binding signal (EhRNaseIII229 [7]) was > 2 fold affinity vs EhRNaseIII256 (at least).

B4: SeMet-EhRNaseIII194 (selenomethionine-labeled EhRNaseIII, aa 1-194) (domain or fragment, Entamoeba histolytica, UniProt C4LU64 1-194, looked up)
chain: MSSTTLHNAMQYTAFDVLSSILNLMKADPLYDLLQLNQAYSSQDQEYEKNEFYGDSYLEERASSLVLKFLRKYEQIPFEMYSGLRIHTVKNQTLGEIFDLLHLGDTKTFEKKKKGDLVESLIGGCVLLSQRENATLFLLFAHALIDYIFYHSSYIYFNANPPKLVKEEIITDIQNWFKDKLFYYRSSLEKYQTD
modifications: selenomethionine substituted (Se-Met) for methionine
notes: EhRNaseIII, the only RNaseIII protein of Entamoeba histolytica (256 aa), aa 1-194 (CTR truncated); Cloned from E. histolytica cDNA into pET28-Sumo; also called EhRNase194; SeMet-RNaseIII194; source: E. coli BL21(DE3) in M9 medium with Se-Met, purified (HisTrap, Ulp1 digestion, HisTrap, HiTrap Q, Superdex 75); not shown: His-Sumo, N-terminal, cleaved
B4 was tested, and the “stoichiometry N” value [8] was 2.

B5: RNA70 (dsRNA)
RNA 1: GGGAGAAACGCGGCCUCUUCUUAUUUAUGGCGACAUGUUGUGCCACAUAUUGAGCCAGUAGCGCUCUCCC
RNA 2: GGGAGAGCGCUACUGGCUCAAUAUGUGGCACAACAUGUCGCCAUAAAUAAGAAGAGGCCGCGUUUCUCCC
B5: no binding (EhRNaseIII229 [1]; 70 bp); no binding ([2]; 70 bp); binds (EhRNaseIII194 [9]).

B6: EhRNaseIII229 (EhRNaseIII aa 1-229) (domain or fragment, Entamoeba histolytica, UniProt C4LU64 1-229, looked up)
chain: MSSTTLHNAMQYTAFDVLSSILNLMKADPLYDLLQLNQAYSSQDQEYEKNEFYGDSYLEERASSLVLKFLRKYEQIPFEMYSGLRIHTVKNQTLGEIFDLLHLGDTKTFEKKKKGDLVESLIGGCVLLSQRENATLFLLFAHALIDYIFYHSSYIYFNANPPKLVKEEIITDIQNWFKDKLFYYRSSLEKYQTDPTNFYLEEQHVSVDLFDDKEEVDTNDIDYILSSSD
notes: EhRNaseIII, the only RNaseIII protein of Entamoeba histolytica (256 aa), aa 1-229 (CTR truncated); Cloned from E. histolytica cDNA into pET28-Sumo; Residues after about 195 were disordered in the crystal; also called EhRNase229; source: E. coli BL21(DE3), purified (HisTrap, Ulp1 digestion, HisTrap, HiTrap Q, Superdex 75); not shown: His-Sumo, N-terminal, cleaved
With B6 the “stoichiometry N” value [10] was 2.

From article PMC5357909, “Structural and functional studies of a noncanonical Dicer from Entamoeba histolytica” (Scientific Reports, 2017)
